Here are results for two molecules from article PMC9067669, “Allostery in the dynamic coactivator domain KIX occurs through minor conformational micro-states” (PLoS Computational Biology, 2022).

Non-standard residues stand in square brackets, D forms with d. pS = N[C@@H](COP(=O)(O)O)C(=O)O

In data set [1] the target is T1, KIX domain from mouse CBP, residues 586-672 (mouse, UniProt P45481 586-672).
T1 construct: the pRSETB vector may add further residues beside the His tag (surmise); also called apo KIX; Apo KIX(586-672); source: E. coli BL21 DE3, purified (HisTrap Ni IMAC, Source S ion exchange)
T1 sequence (P45481 586-672): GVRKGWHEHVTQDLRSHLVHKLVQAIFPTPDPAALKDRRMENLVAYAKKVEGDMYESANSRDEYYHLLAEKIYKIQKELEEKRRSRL
Briefly: differential scanning fluorimetry (DSF); 20 uM protein with 5X SYPRO orange, incubated with 1X TAD peptide at RT for 30 minutes; 25-95°C at 1°C/min; Tm is the maximum of the first derivative, dTm the difference between protein and protein + ligand. The following applies: both partners purified.

Data set [2] deals with T2, KIX_(I660V) (KIX domain from mouse CBP, residues 586-672, I660V) (mouse, UniProt P45481 586-672, I660V).
T2 construct: also called mutant KIX_(I660V); K_(I660V); source: E. coli BL21 DE3, purified (HisTrap Ni IMAC, Source S ion exchange)
T2 sequence (P45481 586-672 I660V): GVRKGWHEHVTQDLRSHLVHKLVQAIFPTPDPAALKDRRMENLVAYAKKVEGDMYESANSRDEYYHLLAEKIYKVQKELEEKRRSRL
The description is as above. The following applies: both partners purified.

B1: pKID(119-147) peptide, phosphorylated kinase-inducible domain of CREB (peptide)
peptide: Ac-TDSQKRREILSRRP[pS]YRKILNDLSSDAPG-NH2
SMILES: CC[C@H](C)[C@H](NC(=O)[C@H](CCCCN)NC(=O)[C@H](CCCNC(=N)N)NC(=O)[C@H](Cc1ccc(O)cc1)NC(=O)[C@H](COP(=O)(O)O)NC(=O)[C@@H]1CCCN1C(=O)[C@H](CCCNC(=N)N)NC(=O)[C@H](CCCNC(=N)N)NC(=O)[C@H](CO)NC(=O)[C@H](CC(C)C)NC(=O)[C@@H](NC(=O)[C@H](CCC(=O)O)NC(=O)[C@H](CCCNC(=N)N)NC(=O)[C@H](CCCNC(=N)N)NC(=O)[C@H](CCCCN)NC(=O)[C@H](CCC(N)=O)NC(=O)[C@H](CO)NC(=O)[C@H](CC(=O)O)NC(=O)[C@@H](NC(C)=O)[C@@H](C)O)[C@@H](C)CC)C(=O)N[C@@H](CC(C)C)C(=O)N[C@@H](CC(N)=O)C(=O)N[C@@H](CC(=O)O)C(=O)N[C@@H](CC(C)C)C(=O)N[C@@H](CO)C(=O)N[C@@H](CO)C(=O)N[C@@H](CC(=O)O)C(=O)N[C@@H](C)C(=O)N1CCC[C@H]1C(=O)NCC(N)=O
notes: kinase-inducible domain of CREB, residues 119-147, phosphorylated; source: synthetic peptide (HPLC purified, >90% purity)
Regarding B1, the binding result in data set [1] and in data set [2] was “binds” each time.

B2: MLL(840-858) peptide (peptide)
peptide: Ac-DCGNILPSDIMDFVLKNTPY-NH2
notes: mixed lineage leukemia (MLL) transcription factor peptide, printed residues 840-858; last printed letter of the peptide, beyond the 19 residues of the stated range; source: synthetic peptide (HPLC purified, reduced with DTT, 98% purity)
With B2, the “increase in TM” value in data set [1] was 0.8 °C.
